# Patent publication US20230331781A1, “PAR4 DERIVED PEPTIDES, ANALOGS AND USES THEREOF” (Yissum Research Development Company of the Hebrew …, priority 2019, published 2023)
# “Also recorded” adds a separate entry of the source.
# B1: hPar4 D349A (receptor, human, UniProt Q96RI0 48-385, looked up)
# chain: GYPGQVCANDSDTLELPDSSRALLLGWVPTRLVPALYGLVLVVGLPANGLALWVLATQAPRLPSTMLLMNLAAADLLLALALPPRIAYHLRGQRWPFGEAACRLATAALYGHMYGSVLLLAAVSLDRYLALVHPLRARALRGRRLALGLCMAAWLMAAALALPLTLQRQTFRLARSDRVLCHDALPLDAQASHWQPAFTCLALLGCFLPLLAMLLCYGATLHTLAASGRRYGHALRLTAVVLASAVAFFVPSNLLLLLHYSDPSPSAWGNLYGAYVPSLALSTLNSCVDPFIYYYVSAEFRAKVRAGLFQRSPGDTVASKASAEGGSRGMGTHSSLLQ
# notes: whole, on cells; also called PAR4MutD; flg-Par4Mut D349A
# Experiments:
# [1] = biological target: T1, PAR4 and Akt (Homo sapiens, UniProt P31749); assay: Inhibition of binding of PAR4 to Akt by PAR4 C-tail peptides (FIG. 3A); type: cell-based; conditions: MDA-MB-231 cells
# T1 construct: endogenous in cells; host or cells: MDA-MB-231
# Description: (§1) Experiments shown in FIG. 3A-3C were carried out in MDA-MB-231 cells. […] Unpaired Student's t test was used. This experiment is a representative of three independent experiments performed in triplicates. […] HEK 293T cells were transfected with wt flg-Par4 followed by AYPGKF activation of PAR4. IP was performed using anti fig abs of cells treated or not with CTP4-A peptide and immunoblotting with anti-Akt abs.
# We evaluated the ability of these peptides to inhibit the binding of PAR4 to Akt protein. […] The PH-domain of Akt/PKB associates with PAR4. To elucidate whether Akt/PKB binds via its PH-domain, constructs of either wt Akt/PKB PH-domain were applied alone or an Akt/PKB-PH domain mutant R25C, impaired in its lipid binding capability of the Akt/PKB-PH domain. Transient transfections of flg-hPar4 and either wt GFP-PH-domain or PH-domain R25C mutant were carried out in HEK293 cells. Cells were activated by the PAR4 AYPGKF ligand for the indicated periods of time and the lysates were further processed for IP analysis. Distinct binding of GFP-Akt/PKB-PH domain module alone with the PAR4 C-tail was obtained (FIG. 4A). […] The mutant constructs (e.g., wt: YVSAEFRDKVRA; mutant F347L: YVSAELRDKVRA=PAR4MutF; mutant D349A: YVSAEFRAKVRA=PAR4MutD) were further evaluated for association with Akt/PKB. […]
# [2] = system: MDA-MB-231 cells; assay: PAR4 induced Matrigel invasion of MDA-MB-231 cells; type: cell-based, human; conditions: AYPGKF activated MDA-MB-231 cells, FIGS. 3B and 3C
# [3] = biological target: T2, PAR4-Akt association (Homo sapiens, UniProt P31749); assay: PAR4-Akt association, immunoprecipitation in HEK293 cells transfected with flg-Par4 and AYPGKF activated; type: cell-based; conditions: HEK 293T cells, wt flg-Par4, AYPGKF activation, FIG. 3D
# T2 construct: FLAG; expressed in transfected cells
# Description: as §1
# FIG. 4A—PH-Akt module alone binds PAR4-C-tail but not mutant R25C. HEK 293 cells were transiently transfected with flg-Par4 construct and either with GFP-PH-Akt domain alone or GFP-R25C. IP of cell lysates following PAR4 AYPGKF activation was carried out using anti-flg abs. Detection of either Akt-PH domain alone associated with PAR4 was performed with anti-GFP. […] FIG. 4C—The PI3K inhibitor […] inhibits the binding of Akt to PAR4. Treatment of HEK 293 cells with LY294002 for various time points or not, following transient transfection with flg-Par4 and AYPGKF activation was performed. Cell lysates were immunoprecipitated with anti-flg antibodies, and anti-Akt was used to assess the association of Akt with the PAR4 C-tail. […] Amino acid residues of PAR4- and PAR2-PH binding motifs. FIG. 4E—mutations inserted into flg-Par4 generated flg-Par4MutE346A. HEK293 cells were transiently transfected with either wt flg-Par4 or flg-Par4MutE346A. IP of cell lysates following PAR4 activation was carried out using anti-flg abs. Detection of PAR4-Akt association was performed by anti Akt Abs. While association with wt Par4 is seen after 5 and 10 min AYPGKF PAR4 activation, when using flg-Par4 E346A no inhibition is seen and effective association with Akt is seen at 30 min activation. FIG. 4F—utations inserted into flg-Par4 generated flg-Par4Mut F347A and flg-Par4Mut D349A. HEK293 cells were transiently transfected with either wt flg-Par4 or flg-Par4Mut F347A or flg-Par4Mut D349A. IP of cell lysates following PAR4 activation was carried out using anti-f/g abs. Detection of PAR4-Akt association was performed by anti Akt Abs. While association with wt Par4 is seen after 5 min AYPGKF PAR4 activation, no such binding is obtained when using either flg-Par4 F347A or flg-Par4D349A.
# HEK293 cells were transiently transfected with flg-Par4 followed by AYPGKF PAR4 activation in the presence and absence of PAR4c (4-4) within the range of 50 nM-150 μM. IP of cell lysates following different periods of activation was carried out using anti flg abs. Detection of Akt was performed by anti Akt abs. β-actin serves as a control gene for loading. […] Matrigel invasion before and after AYPGKF PAR4 activation and in the presence and absence of PAR4 c(4-4) inhibitor in the activated PAR4 cells. […] FIG. 8C—Histograms represent quantification of the cells/HPF invaded the Matrigel layer. […]
# [4] = biological target: T3, Akt/PKB (protein kinase B) (UniProt P31749 1-480, limits assumed); assay: co-IP: anti-flg IP from HEK293 cells transfected with the mutant, anti-Akt blot (FIG. 4F)
# T3 construct: Endogenous Akt of human cell lines
# Description: FIG. 4A—PH-Akt module alone binds PAR₄-C-tail but not mutant R25C. HEK 293 cells were transiently transfected with flg-Par4 construct and either with GFP-PH-Akt domain alone or GFP-R25C. IP of cell lysates following PAR₄ AYPGKF activation was carried out using anti-flg abs. Detection of either Akt-PH domain alone associated with PAR₄ was performed with anti-GFP. […] FIG. 4C—The PI3K inhibitor […] inhibits the binding of Akt to PAR₄. Treatment of HEK 293 cells with LY294002 for various time points or not, following transient transfection with flg-Par4 and AYPGKF activation was performed. Cell lysates were immunoprecipitated with anti-flg antibodies, and anti-Akt was used to assess the association of Akt with the PAR₄ C-tail. […] Amino acid residues of PAR₄- and PAR₂-PH binding motifs. FIG. 4E—mutations inserted into flg-Par4 generated flg-Par4MutE346A. HEK293 cells were transiently transfected with either wt flg-Par4 or flg-Par4MutE346A. IP of cell lysates following PAR₄ activation was carried out using anti-flg abs. Detection of PAR₄-Akt association was performed by anti Akt Abs. While association with wt Par4 is seen after 5 and 10 min AYPGKF PAR₄ activation, when using flg-Par4 E346A no inhibition is seen and effective association with Akt is seen at 30 min activation. FIG. 4F—utations inserted into flg-Par4 generated flg-Par4Mut F347A and flg-Par4Mut D349A. […]
# T2 sequence (P31749 whole entry): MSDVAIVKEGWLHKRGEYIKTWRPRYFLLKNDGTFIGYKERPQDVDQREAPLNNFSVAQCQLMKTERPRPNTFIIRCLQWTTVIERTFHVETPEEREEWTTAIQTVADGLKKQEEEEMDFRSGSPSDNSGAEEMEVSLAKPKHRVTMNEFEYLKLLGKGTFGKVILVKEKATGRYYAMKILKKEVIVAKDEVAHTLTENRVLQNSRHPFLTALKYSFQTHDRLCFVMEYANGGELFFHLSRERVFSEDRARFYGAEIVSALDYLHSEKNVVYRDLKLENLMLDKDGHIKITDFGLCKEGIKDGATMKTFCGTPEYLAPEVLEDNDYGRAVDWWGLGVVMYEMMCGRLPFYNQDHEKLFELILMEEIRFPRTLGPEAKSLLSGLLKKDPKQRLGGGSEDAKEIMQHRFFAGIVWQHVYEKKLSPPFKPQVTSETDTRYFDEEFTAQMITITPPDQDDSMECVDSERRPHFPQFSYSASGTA
# T1 sequence (P31749 whole entry): as above
# T3 sequence (P31749 whole entry): as above
molecule,measurement,setting,value
H-YVSAEFRDKVRA-OH [Peptide 1],inhibition of interaction between PAR4 and Akt,[1],effectively inhibited
same,inhibition of PAR4 induced Matrigel invasion,[2]; listed as CTP4-A,significantly inhibit; also recorded: attenuated
same,inhibition of PAR4-Akt association (IP),[3]; listed as CTP4-A,inhibited; also recorded: potently inhibits
"H-DTVASKASAEGG-OH [CTP4-C, downstream PAR4 C-tail peptide]",inhibition of PAR4 induced Matrigel invasion,[2],no effect
"H-RAGLFQRSPGDT-OH [CTP4-B, downstream PAR4 C-tail peptide]",inhibition of PAR4 induced Matrigel invasion,[2],no effect
same,inhibition of PAR4-Akt association (IP),[3],not
B1,binding result,[4],no binding
